Measurements published in article PMC6265330, “Compositional adaptability in NPM1-SURF6 scaffolding networks enabled by dynamic switching of phase separation mechanisms” (Nature Communications, 2018).

Target: T1, S6N, N-terminal fragment of Surfeit locus protein 6 (SURF6), residues 1-182 (human, UniProt O75683 1-182)
T1 construct: Surfeit locus protein 6 (SURF6), human, 361 amino acids; N-terminal construct of residues 1-182 with R-motifs R1 and R2; In imaging experiments 10% was labelled with Alexa Fluor 647 at Cys19; also called SURF6 N-terminal construct; source: E. coli BL21 Rosetta 2 (DE3), purified from inclusion bodies (Ni-NTA under denaturing conditions, TEV cleavage, C4 HPLC)
T1 sequence (looked up): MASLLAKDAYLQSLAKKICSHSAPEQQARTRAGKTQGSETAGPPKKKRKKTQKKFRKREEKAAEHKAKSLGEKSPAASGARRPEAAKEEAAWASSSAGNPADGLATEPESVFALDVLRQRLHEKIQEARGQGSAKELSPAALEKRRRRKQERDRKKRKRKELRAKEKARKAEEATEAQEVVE
Experiment: not stated; method and conditions not shown in the main text (Supplementary Fig. 13)
Settings: both partners purified

B1: IDR of NPM1 (domain or fragment, UniProt P06748 120-240, looked up)
chain: EEDAESEDEEEEDVKLLSISGKRSAPGGGSKVPQKKVKLAADEDDDDDDEEDDDEDDDDDDFDDEEAEEKAPVKKSIRDTPAKNAQKSNQNGKDSKPSSTPRSKGQESFKKQEKTPKTPKG
notes: Nucleophosmin (NPM1), central intrinsically disordered region; also called NPM1-IDR
A Kd of 350 nM was found for B1 in this work.
